Measurements reported in US20190315842A1 (DUKE UNIVERSITY, published 2019).
“And” between values parts separate entries of the source, which are not always exact repeats. Identical values can stand only once.

T1: centromere B (CentB) (UniProt P07199 2-599)
T1 sequence (looked up): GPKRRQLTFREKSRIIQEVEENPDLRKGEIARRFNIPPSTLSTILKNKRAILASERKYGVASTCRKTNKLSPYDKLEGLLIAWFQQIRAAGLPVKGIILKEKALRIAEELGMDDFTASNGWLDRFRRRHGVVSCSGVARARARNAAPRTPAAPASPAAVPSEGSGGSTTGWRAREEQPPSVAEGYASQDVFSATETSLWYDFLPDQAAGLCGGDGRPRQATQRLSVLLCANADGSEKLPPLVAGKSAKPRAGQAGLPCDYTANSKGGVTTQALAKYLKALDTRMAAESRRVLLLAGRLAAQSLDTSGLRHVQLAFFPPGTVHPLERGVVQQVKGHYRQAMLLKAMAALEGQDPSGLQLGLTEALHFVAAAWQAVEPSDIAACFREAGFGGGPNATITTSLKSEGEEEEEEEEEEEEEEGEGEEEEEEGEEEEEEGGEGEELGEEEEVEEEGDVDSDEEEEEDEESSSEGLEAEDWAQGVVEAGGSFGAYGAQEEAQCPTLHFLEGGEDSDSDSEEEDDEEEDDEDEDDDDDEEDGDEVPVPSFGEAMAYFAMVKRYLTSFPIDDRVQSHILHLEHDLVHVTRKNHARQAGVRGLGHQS

T2: systemic lupus erythematosus autoantigen SSB (UniProt P05455 1-408, limits assumed)
T2 sequence (looked up): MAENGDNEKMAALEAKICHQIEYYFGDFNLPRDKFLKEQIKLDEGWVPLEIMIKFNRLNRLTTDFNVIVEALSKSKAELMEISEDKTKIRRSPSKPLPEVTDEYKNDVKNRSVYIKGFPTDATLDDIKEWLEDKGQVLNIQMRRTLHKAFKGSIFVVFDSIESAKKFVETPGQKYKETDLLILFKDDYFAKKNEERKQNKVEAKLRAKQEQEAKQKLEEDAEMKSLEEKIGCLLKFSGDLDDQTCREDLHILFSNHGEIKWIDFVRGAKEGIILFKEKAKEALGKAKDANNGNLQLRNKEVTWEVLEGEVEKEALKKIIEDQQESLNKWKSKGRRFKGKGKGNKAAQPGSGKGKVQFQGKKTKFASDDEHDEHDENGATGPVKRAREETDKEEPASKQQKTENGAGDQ

T3: 15-mer peptide GPPPPIDNGDITSFP (SEQ ID NO: 114) (human)
T3 construct: Immobilized for SPR; also called parent peptide
T3 peptide: GPPPPIDNGDITSFP

T4: reduced SCR19-20 (human CFH short consensus repeat domains 19 and 20, reduced) (human, UniProt P08603 1107-1231, disulfides reduced with TCEP or reducing SDS-PAGE)
T4 construct: domain: SCR19-20; Same construct as m3, reduced
T4 sequence (looked up): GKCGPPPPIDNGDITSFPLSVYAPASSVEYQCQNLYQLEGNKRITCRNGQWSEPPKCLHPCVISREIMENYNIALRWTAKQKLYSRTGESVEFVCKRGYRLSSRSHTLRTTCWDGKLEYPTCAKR

B1: Ab7957/293i (antibody, IgG1, V domains shown)
VH: LVESGGGVVPPGKSLRLSCAASGFTFSLYGIHWVRQAPGKGLEWVAVISYDGNTKYYTDSVKGRFTISRDNAKNTIYLQMNSLRLDDTAVYYCAKGAANSATFDFWGRGTMVTVSS
VL: MTQSPDSLTLSLGERATINCRSSRTVLYRSNNKNYLAWYQHKPGQPPKLLMSWASTRETGVPDRFSGSGSGTHFTLTITSLQPEDVAVYYCQQYYSPPWTFGQGTKVEIR
notes: Recombinant human antibody with IgG1 heavy chain backbone and kappa light chain constant; they begin at LVESGGG and MTQSP; also called Ab7957i; mAb 7957
B2: Ab7968 (antibody, IgG1, V domains shown)
VH: LVESGGGVVQPGRSLRLSCAASGFTFSRYGMHWVRQAPGKGLEWVAVMSYDGSTKYYADSVKGRFAISRDNPKNTLFLQMNSLRPDDTAVYYCAKGGAAAAVMDVWGKGTTVTVSS
VL: MTQSPDSLTVSLGERATISCKSSQRLLYSSNNKNYLAWYQQKPGQPPKLLMYWASTRESGVPDRFSGSGSGTDFSLTISSLQAEDVAVYYCQQYYNPPWTFGQGTKVEVK
notes: Recombinant human antibody with IgG1 heavy chain backbone and kappa light chain constant; they begin at LVESGGG and MTQSP; also called mAb 7968; mAb7968
B3: Ab7962/293i (antibody, V domains shown)
VH: LVESGGGLVQPGGSLRLSCAASGFTFSSYEMNWVRQAPGKGLEWVSYISSSGSTIYYADSVKGRFTISRDNAKNSLYLQMNSLRAEDTAVYYCARVEQLAPSPYMDVWGKGTTVTVSS
VL: MTQSLDSLTVSLGERATINCKSSQSLLYTSNNKNYLAWYQQKSGQPPKLLIYWASIRDSGVPDRFSGSGSATDFTLTINNLQAEDVAVYFCQQYYKTPLTFGGGTKVEVR
notes: Recombinant human antibody with IgG1 heavy chain backbone and kappa light chain constant (IgM in the donor B cell); they begin at LVESGGG and MTQSL; also called clone 27; pH007962/pK005996

Tests used:
centromere B (CentB) [1] = target: T1, centromere B (CentB); assay: AtheNA Multi-Lyte ANA, Ab at 12.5 ug/ml;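 note: monoclonal antibodies screened for binding to a panel of nuclear autoantigens (SSA, SSB, Sm, RNP, Scl-70, Jo-1, dsDNA, CentB, histones), with anti-HIV and anti-RSV antibodies as controls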
Protocol: (§1) All 7 mAbs were tested against the AtheNA Multi-Lyte panel of autoantigens. The AtheNA Multi-Lyte ANA test for a panel of nuclear antigens: systemic lupus erythematosus autoantigens SSA and SSB, sphingomyelin (Sm), ribonucleoprotein (RNP), sclerosis autoantigen (Scl-70), histidine-tRNA ligase (Jo-1), double-stranded DNA (dsDNA), centromere B (CentB), and histones. 4e10 (Anti HIV, NIH AIDS Reagent Program) and SYNAGIS® (anti-RSV monoclonal antibody palivizumab; “Synagis”) were used a controls.

[2] = target: T5, reduced form of Complement Factor H (CFH), treated with TCEP (human, UniProt P08603 19-1231, disulfides reduced with 10 mM TCEP); assay: immunoblot, SDS-PAGE under reducing conditions, antibody at 0.5 µg/ml, anti-human IgG-HRP, chemiluminescence; lane numbers as in Table 10
T5 construct: also called reduced CFH; reduced form of CFH

[3] = target: T6, Complement Factor H (CFH) protein, full-length (human, UniProt P08603 19-1231); assay: immunoblot, SDS-PAGE under non-reducing conditions, antibody at 0.5 µg/ml, anti-human IgG-HRP, chemiluminescence; lane numbers as in Table 10
T6 construct: also called full-length CFH; native CFH

centromere B (CentB) [4] = target: T1, centromere B (CentB); assay: AtheNA Multi-Lyte ANA, Ab at 25 ug/ml
Protocol: as §1

[5] = target: systemic lupus erythematosus autoantigen SSA; assay: AtheNA Multi-Lyte ANA, Ab at 25 ug/ml
Protocol: as §1

[6] = target: T2, systemic lupus erythematosus …; assay: AtheNA Multi-Lyte ANA, Ab at 12.5 ug/ml;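 note: monoclonal antibodies screened for binding to a panel of nuclear autoantigens (SSA, SSB, Sm, RNP, Scl-70, Jo-1, dsDNA, CentB, histones), with anti-HIV and anti-RSV antibodies as controls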
Protocol: as §1

[7] = target: T2, systemic lupus erythematosus …; assay: AtheNA Multi-Lyte ANA, Ab at 25 ug/ml
Protocol: as §1

[8] = target: T3, 15-mer peptide GPPPPIDNGDITSFP (SEQ ID …); assay: SPR (BIAcore), mAb at 25, 50 or 100 nM over immobilized 15-mer peptide
[9] = target: T6, Complement Factor H (CFH) protein, …; assay: immunoblot, SDS-PAGE under non-reducing conditions, anti-human IgG-HRP, chemiluminescence; lane numbers as in Table 10
[10] = target: T5, reduced form of Complement Factor H …; assay: immunoblot, SDS-PAGE under reducing conditions, anti-human IgG-HRP, chemiluminescence; lane numbers as in Table 10
[11] = target: T4, reduced SCR19-20 (human CFH short …); assay: as above

Binder	AtheNA signal (centromere B (CentB) [1])	binding result [2]	binding result [3]	AtheNA signal (centromere B (CentB) [4])	AtheNA signal [5]	AtheNA signal [6]	AtheNA signal [7]	Kd [8]	koff [8]	kon [8]	binding result [9]	binding result [10]	binding result [11]
B1	2	binds	binds	2	11								
B2					8	12	8	~2.5 pM and 2.46 pM	5.56e-07 s⁻¹	226000 M⁻¹ s⁻¹			
B3	2					5					no binding (tested: 0.5 µg/ml)	no binding (tested: 0.5 µg/ml)	no binding (tested: 0.5 µg/ml)
